The numbers were not newly measured in article PMC9558124, which cites them from elsewhere.

The target of the series is PEX19 (Homo sapiens) (UniProt P40855).
Chain of UniProt P40855 (P40855 2-296): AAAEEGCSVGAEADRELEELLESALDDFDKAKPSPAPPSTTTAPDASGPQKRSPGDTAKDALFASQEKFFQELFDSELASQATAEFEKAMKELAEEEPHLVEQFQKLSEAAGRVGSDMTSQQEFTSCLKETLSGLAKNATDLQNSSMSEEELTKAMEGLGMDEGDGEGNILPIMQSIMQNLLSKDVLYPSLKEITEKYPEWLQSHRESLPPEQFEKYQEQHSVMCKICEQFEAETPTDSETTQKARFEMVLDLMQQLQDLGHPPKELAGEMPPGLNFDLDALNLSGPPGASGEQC

Usually Kd stands for the constant that tells how readily two partners part at equilibrium. With PEX3 CTD (from UniProt P56589), the Kd was 10 nM.
